# Article PMC3536657
# How the values were obtained:
# mature IgG b12 (human) = test: BLI; antibody-capture kinetics: IgG on biosensors, 2-fold serial dilutions of Env; mean of curves with R^2 >= 0.95
# [1] = molecular target: b12 chimeric IgG, mature heavy chain paired with the germline light chain (human); test: as above
# [2] = molecular target: b12 chimeric IgG, germline heavy chain paired with the mature light chain (human); test: as above
# [3] = molecular target: HXB2 gp120 (HIV-1 clade B, isolate HXB2) (UniProt P04578)
# [4] = molecular target: QH0692 gp120 (HIV-1 (clade B, isolate QH0692))
# Chain of mature IgG b12 (human) (heavy, as listed by the source, chain 1 of 2): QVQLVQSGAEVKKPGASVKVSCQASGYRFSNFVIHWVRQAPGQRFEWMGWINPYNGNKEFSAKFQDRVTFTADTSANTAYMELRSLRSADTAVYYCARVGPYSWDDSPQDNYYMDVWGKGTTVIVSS
# Chain of mature IgG b12 (human) (light, as listed by the source, chain 2 of 2): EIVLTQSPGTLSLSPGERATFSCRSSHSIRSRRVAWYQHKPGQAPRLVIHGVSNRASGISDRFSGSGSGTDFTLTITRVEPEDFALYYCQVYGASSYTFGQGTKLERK
# Chain of b12 chimeric IgG, germline heavy chain paired with the mature light chain (human) (heavy, as listed by the source, chain 1 of 2): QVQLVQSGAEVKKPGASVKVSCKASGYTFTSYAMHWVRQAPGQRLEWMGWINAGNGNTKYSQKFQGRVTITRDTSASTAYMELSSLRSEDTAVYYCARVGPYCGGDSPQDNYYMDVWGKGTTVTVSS
# Chain of b12 chimeric IgG, mature heavy chain paired with the germline light chain (human) (light, as listed by the source, chain 2 of 2): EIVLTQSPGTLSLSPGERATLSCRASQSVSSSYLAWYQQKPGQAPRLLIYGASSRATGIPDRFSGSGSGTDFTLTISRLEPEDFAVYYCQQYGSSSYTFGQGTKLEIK
Substance,Ka (mature IgG b12 (human)) [M⁻¹],Kd (mature IgG b12 (human)) [nM],Ka [1] [M⁻¹],Ka [2] [M⁻¹],"neutralisation of HXB2 virions (luciferase reporter cells), IC50 [3] [µg/mL]","neutralisation of QH0692 virions (luciferase reporter cells), IC50 [4] [µg/mL]"
QH0692 gp120 (natural protein),2e+09,2,7.56e+06,1.39e+07,–,–
mature IgG b12 (antibody),–,–,–,–,0.002,0.22
